{"source": "paper PMC4951694", "about": "“Structural and thermodynamic basis of proline-induced transmembrane complex stabilization” (Scientific Reports, 2016)", "target": "T1, integrin β3(G690C/A711P) TM peptide of the disulfide-linked αIIb(A963C)–β3(G690C/A711P) dimer (human, UniProt P05106 711-753, C687S | G690C | A711P, not fully specified; C690 disulfide-linked to C963 of αIIb(A963C); 2H/13C/15N or 2H/15N labelling in some samples)", "T1 construct": "integrin β3, human, P685-F727; add 26 for P05106; source: E. coli", "T1 chain (looked up)": "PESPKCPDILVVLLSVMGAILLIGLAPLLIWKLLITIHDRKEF", "assay": "NMR structure; disulfide-linked dimer, 0.8 mM, in 350 mM DHPC, 105 mM DMPC bicelles (q 0.3), pH 7.4, 40 °C; interhelical NOEs and RDCs", "settings": "both partners purified", "data": [{"binder": "integrin αIIb(A963C) TM peptide of the disulfide-linked αIIb(A963C)–β3(G690C/A711P) dimer (C963 disulfide-linked to C690 of β3(G690C/A711P); 2H/13C/15N, 2H/15N or fractionally deuterated labelling in some samples, integrin αIIb, human, A958-P998; add 31 for P08514; source: E. coli) not shown", "values": [{"measurement": "binding result", "result": "binds"}]}]}
